The subject of test [1] is RSV pre-F antibody (3C12). Briefly: Binding of epitope Φ of RSV F antigen mutants by flow cytometry. As to conditions: for RSV pre-F antibody (3C12) Epitope Φ (%) binding rate: flow cytometry; for Φ/II (%): ratio of epitope Φ (3C12) to epitope II (11A9) binding rate. The method in brief:
(§1)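 293T cells were transfected with mRNA-LNP (300 ng mRNA) encoding the RSV F mutants and harvested after 16 h. Cells were stained with fluorescent 3C12 (pre-F-specific epitope Φ) or 11A9 (epitope II, pre-F and post-F) for 2 h at 4 °C in the dark, then washed and read by flow cytometry on 1×10^4 cells per measurement.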
In general terms: In flow cytometry, cells or beads pass a laser one at a time.

The next test relates to RSV F antibody (11A9). Nature of the test: Binding of epitope II of RSV F antigen mutants by flow cytometry. As to conditions: epitope II, antibody 11A9. The essentials:
as §1

Test [2] relates to RSV pre-F antibody (7E11). Briefly: ELISA binding of RSV F antigen mutants, epitope V. As to conditions: for Binding amount to antibody/binding amount of PC-RSV-064 to antibody, Epitope V: antibody 7E11, relative to PC-RSV-064. The protocol:
To investigate the binding of the RSV F antigen mutants to antibodies recognizing different epitopes, the binding amount was determined by an ELISA method in this example.
• 293T cells (purchased from ATCC cell bank); • Primary antibody: RSV pre-F antibody (3C12), epitope ([…] (Novoprotein, Cat. No.: DA101); • RSV pre-F antibody (7H11), epitope Quaternary (Novoprotein, Cat. No.: DA109); • RSV F antibody (11A9), epitope II (Novoprotein, Cat. No.: DA091); • RSV F antibody (4B9), epitope III (Novoprotein, Cat. No.: DA110); • RSV pre-F antibody (7E11), epitope V (Cat. No.: DA119); • Standard: RSV-pre-F trimer protein (Novoprotein, Cat. No.: DRA230); • Secondary antibody: peroxidase AffiniPure goat anti-human IgG (H+L) (Yeasen, Cat. No.: N/A); • Experimental group: mRNA vaccines after screening in Example 5;
Cell culture and transfection, and protein sample preparation: the experimental procedures were the same as in Example 3.
Detection of antigen expression by ELISA: the experimental procedures were the same as in Example 5.
In the present application, the binding of different mutant antigens to antibodies recognizing different epitopes was detected by ELISA, and the strength of the binding of the antigens to the antibodies was measured by the binding amount. (1) The RSV pre-F antibody (3C12) recognizing the epitope Φ binds only to the F protein in the pre-fusion conformation; (2) the RSV pre-F antibody (7H11) recognizes the epitope Quaternary (spanning both epitopes IV and V) and specifically binds to the F protein in the pre-fusion conformation; (3) the RSV F antibody (11A9) recognizing the epitope II can recognize both the pre-fusion and post-fusion conformations of the F protein; (4) the RSV F antibody […] recognizing the epitope III preferentially recognizes the pre-fusion conformation and has relatively weak binding activity for the post-fusion conformation; (5) the RSV pre-F antibody (7E11) recognizing the epitope V binds only to the F protein in the pre-fusion conformation.
(An ELISA detects its analyte on a solid surface through an enzyme-linked reagent.)

B1: YK-RSV-009 (protein)
chain: QNITEEFYCSTCSAVSKGYLGALRTGWYTSVILIELSNIKENKCNGTDAKVKLIKQELDKYKNAVTDLQLLMQSTPATGSGSAIASGVAVSKVLHLEGEVNKIKSALLSTNKAVVSLSNGVSVLTFKVLDLKNYIDKQLLPIVNKQSCSIPNIETVIEFQQKNNRLLEITREFSVNAGVTTPVSTYMLTNSELLSLINDMPITNDQKKLMSNNVQIVRQQSYSIMSIIKEEVLAYVVQLPLYGVIDTPCWKLHTSPLCTTNTKEGSNICLTRTDRGWYCDNAGSVSFFPQAETCKVQSNRVFCDTMNSRTLPSEVNLCNVDIFNPKYDCKIMTSKTDVSSSVITSLGAIVSCYGKTKCTASNKNRGIIKTFSNGCDYVSNKGVDTVSVGNTLYYVNKQEGQSLYVKCEPIINFYDPLVFPSSEFDASISQVNEKINQSLAFIRKSDELLHNVNAGKSTTNIMITTIIIVIIVILLSLIAVGLLLY
On to B1, for which, in test [1], the “RSV pre-F antibody (3C12) Epitope Φ (%) binding rate” value was 87.4% and the “Φ/II (%)” value is on record as 93.9%. Moreover, the “RSV F antibody (11A9) Epitope II (%) binding rate” value (“RSV F antibody … (%) binding rate” for short) in the test with RSV F antibody (11A9) is recorded as 93.1%. Moreover, in test [2], the “ELISA binding amount, Epitope V, RSV F antibody (7E11)” value (from here on “ELISA binding amount, Epitope V”) was 43 ng/mL and the “Binding amount to antibody/binding amount of PC-RSV-064 to antibody, Epitope V” value was determined as 0.13.

B2: YK-RSV-010 (protein)
chain: QNITEEFYQSTCSAVSKGYLGALRTGWYTCVILIELSNIKENKCNGTDAKVKLIKQELDKYKNAVTDLQLLMQSTPATGSGSAIASGVAVSKVLHLEGEVNKIKSALLSTNKAVVSLSNGVSVCTFKVLDLKNYIDKQLLPIVNKQSCSIPNIETVIEFQQKNNRLLEITREFSVNAGVTTPVSTYMLTNSELLSLINDMPITNDQKKLMSNNVQIVRQQSYSIMSIIKEEVLAYVVQLPLYGVIDTPCWKLHTSPLCTTNTKEGSNICLTRTDRGWYCDNAGSVSFFPQAETCKVQSNRVFCDTMNSRTLPSEVNLCNVDIFNPKYDCKIMTSKTDVSSSVITSLGAIVSCYGKTKCTASNKNRGIIKTFSNGCDYVSNKGVDTVSVGNTLYYVNKQEGQSLYVKGEPIINFYDPLVFPSSEFDASISQVNEKINQSLAFIRKSDELLHNVNAGKSTTNIMITTIIIVIIVILLSLIAVGLLLY
B2: in test [1], the “Φ/II (%)” value was 97.3%. For the same molecule, in test [2], the “ELISA binding amount, Epitope V” value amounted to 139 ng/mL and the “Binding amount to antibody/binding amount of PC-RSV-064 to antibody, Epitope V” value was 0.43.

B3: YK-RSV-057 (protein)
chain: QNITEEFYQSTCSAVSKGYLGALRTGWYTSVITIELSNIKENKCNGTDAKVKLIKQELDKYKNAVTDLQLLMQSTPATGSGSCIASGVAVSKVLHLEGEVNKIKSALLSTNKAVVSLSNGVSVLTFKVLDLKNYIDKQLLPILNKQSCSIPNIETVIEFQQKNNRLLEITREFSVNAGVTTPVSTYMLTNSELLSLINDMPITNDQKKLMSNNVQIVRQQSYSIMSCIKEEVLAYVVQLPLYGVIDTPCWKLHTSPLCTTNTKEGSNICLTRTDRGWYCDNAGSVSFFPQAETCKVQSNRVFCDTMNSRTLPSEVNLCNVDIFNPKYDCKIMTSKTDVSSSVITSLGAIVSCYGKTKCTASNKNRGIIKTFSNGCDYVSNKGVDTVSVGNTLYYVNKQEGQSLYVKGEPIINFYDPLVFPSDEFDASISQVNEKINQSLAFIRKSDELLHNVNAGKSTTNIMITTIIIVIIVILLSLIAVGLLLY
In the case of B3, in test [1], the “Φ/II (%)” value is recorded as 97.1%. Further, in test [2], the “ELISA binding amount, Epitope V” value was 129 ng/mL and the “Binding amount to antibody/binding amount of PC-RSV-064 to antibody, Epitope V” value was 0.40.

B4: YK-RSV-043 (protein)
chain: QNITEEFYQSTCSAVSKGYLGALRTGWYTSVITIELSNIKENKCNGTDAKVKLIKQELDKYKNAVTDLQLLMQSCPATGSGSAIACGVAVSKVLHLEGEVNKIKSALLSTNKAVVSLSNGVSVLTFKVLDLKNYIDKQLLPILNKQSCSIPNIETVIEFQQKNNRLLEITREFSVNAGVTTPVSTYMLTNSELLSLINDMPITNDQKKLMSNNVQIVRQQSYSIMSIIKEEVLAYVVQLPLYGVIDTPCWKLHTSPLCTTNTKEGSNICLTRTDRGWYCDNAGSVSFFPQAETCKVQSNRVFCDTMNSRTLPSEVNLCNVDIFNPKYDCKIMTSKTDVSSSVITSLGAIVSCYGKTKCTASNKNRGIIKTFSNGCDYVSNKGVDTVSVGNTLYYVNKQEGQSLYVKGEPIINFYDPLVFPSDEFDASISQVNEKINQSLAFIRKSDELLHNVNAGKSTTNIMITTIIIVIIVILLSLIAVGLLLY
As to B4, the “Φ/II (%)” value in test [1] came out at 95.3%. Also, in test [2], the “ELISA binding amount, Epitope V” value worked out at 223 ng/mL and the “Binding amount to antibody/binding amount of PC-RSV-064 to antibody, Epitope V” value is on record as 0.69.

B5: YK-RSV-055 (protein)
chain: QNITEEFYQSTCSAVSKGYLGALRTGWYTSVITIELSNIKENKCNGTDAKVKLIKQELDKYKNAVTDLQLLMQSTPATGSGSCIASGVAVSKVLHLEGEVNKIKSALLSTNKAVVSLSNGVSVLTFKVLDLKNYIDKQLLPILNKQSCSIPNIETVIEFQQKNNRLLEITREFSVNAGVTTPVSTYMLTNSELLSLINDMPITNDQKKLMSNNVQIVRQQSYSIMSICKEEVLAYVVQLPLYGVIDTPCWKLHTSPLCTTNTKEGSNICLTRTDRGWYCDNAGSVSFFPQAETCKVQSNRVFCDTMNSRTLPSEVNLCNVDIFNPKYDCKIMTSKTDVSSSVITSLGAIVSCYGKTKCTASNKNRGIIKTFSNGCDYVSNKGVDTVSVGNTLYYVNKQEGQSLYVKGEPIINFYDPLVFPSDEFDASISQVNEKINQSLAFIRKSDELLHNVNAGKSTTNIMITTIIIVIIVILLSLIAVGLLLY
Regarding B5, the “Φ/II (%)” value in test [1] was determined as 97.0%. Moreover, in test [2], the “ELISA binding amount, Epitope V” value was 91 ng/mL and the “Binding amount to antibody/binding amount of PC-RSV-064 to antibody, Epitope V” value stood at 0.28.

B6: YK-RSV-048 (protein)
chain: QNITEEFYQSTCSAVSKGYLGALRTGWYTSVITIELSNIKENKCNGTDAKVKLIKQELDKYKNAVTDLQLLMQSTPATGSGSFLGFLCGVGSAIASGVAVSKVLHLEGEVNKIKSALLSTNKAVVSLSNGVSVLTFKVLDLKNYIDKQLLPILNKQSCSIPNIETVIEFQQKNNRLLEITREFSVNAGVTTPVSTYMLTNSELLSLINDMPITNDQKKLMSNNVQIVRQQSYSIMSIIKEEVLAYVVQLPLYGVIDTPCWKLHTSPLCTTNTKEGSNICLTRTDRGWYCDNAGSVSFFPQAETCKVQSNRVFCDTMCSRTLPSEVNLCNVDIFNPKYDCKIMTSKTDVSSSVITSLGAIVSCYGKTKCTASNKNRGIIKTFSNGCDYVSNKGVDTVSVGNTLYYVNKQEGQSLYVKGEPIINFYDPLVFPSDEFDASISQVNEKINQSLAFIRKSDELLHNVNAGKSTTNIMITTIIIVIIVILLSLIAVGLLLY
For B6, in test [1], the “RSV pre-F antibody (3C12) Epitope Φ (%) binding rate” value is on record as 89.6% and the “Φ/II (%)” value is given as 94.2%. The “RSV F antibody … (%) binding rate” value with RSV F antibody (11A9) was determined as 95.1%. In addition, in test [2], the “ELISA binding amount, Epitope V” value is 217 ng/mL and the “Binding amount to antibody/binding amount of PC-RSV-064 to antibody, Epitope V” value came out at 0.68.

B7: YK-RSV-050 (protein)
chain: QNITEEFYQSTCSAVSKGYLGALRTGWYTSVITIELSNIKENKCNGTDAKVKLIKQELDKYKNAVTDLQLLMQSTPATGSGSFLGFCLGVGSAIASGVAVSKVLHLEGEVNKIKSALLSTNKAVVSLSNGVSVLTFKVLDLKNYIDKQLLPILNKQSCSIPNIETVIEFQQKNNRLLEITREFSVNAGVTTPVSTYMLTNSELLSLINDMPITNDQKKLMSNNVQIVRQQSYSIMSIIKEEVLAYVVQLPLYGVIDTPCWKLHTSPLCTTNTKEGSNICLTRTDRGWYCDNAGSVSFFPQAETCKVQSNRVFCDTMCSRTLPSEVNLCNVDIFNPKYDCKIMTSKTDVSSSVITSLGAIVSCYGKTKCTASNKNRGIIKTFSNGCDYVSNKGVDTVSVGNTLYYVNKQEGQSLYVKGEPIINFYDPLVFPSDEFDASISQVNEKINQSLAFIRKSDELLHNVNAGKSTTNIMITTIIIVIIVILLSLIAVGLLLY
Regarding B7, in test [1], the “RSV pre-F antibody (3C12) Epitope Φ (%) binding rate” value was 86.5% and the “Φ/II (%)” value is given as 93.0%. For the same molecule, the “RSV F antibody … (%) binding rate” value with RSV F antibody (11A9) was 93.0%. In test [2], the “ELISA binding amount, Epitope V” value came out at 923 ng/mL and the “Binding amount to antibody/binding amount of PC-RSV-064 to antibody, Epitope V” value is reported as 2.88.

The values above are taken from US12514920B1, “Respiratory syncytial virus mRNA vaccine, and preparation method therefor and use thereof” (Hangzhou Tianlong Pharmaceutical Co., Ltd., priority 2024, dated 2026).
